± gives the uncertainty stated by the source.
Experiment: self-splicing fitness, log relative to wild type (ln ratio); higher = more splicing; Tetrahymena group I intron in knt gene, E. coli kanamycin selection, DiMSum; sequences stand for … in CUCUCU…GGAGGGAAAAGUUAUCAGGCAUGCACCUGGUAGCUAGUCUUUAAACCAAUAGAUUGCAUCGGUUUAAAAGGCAAGACCGUCAAAUUGCGGGAAAGGGGUCAACAGCCGUUCAGUACCAAGUCUCAGGGGAAACUUUGAGAUGGCCUUGCAAAGGGUAUGGUAAUAAGCUGACGGACAUGGUCCUAACCACGCAGCCAAGUCCUAAGUCAACAGAUCUUCUGUUGAUAUGGAUGCAGUUCACAGACUAAAUGUCGGUCGGGGAAGAUGUAUUCUUCUCAUAAGAUAUAGUCGGACCUCUCCUUAAUGGGAGCUAGCGGAUGAAGUGAUGCAACACUGGAGCCGCUGGGAACUAAUUUGUAUGCGAAAGUAUAUUGAUUAGUUUUGGAGUACUCGUGGUCG
Method in brief: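 The eight P1ex-region nucleotides of an intron in the knt kanamycin-resistance gene on pET-22b(+) were all randomised and the library put into E. coli BL21(DE3). Six replicate transformations were grown overnight at 37°C or 30°C on LB agar with or without 25 μg/mL kanamycin, together with 100 μg/mL carbenicillin, 50 μM IPTG and 0.2% rhamnose. Colonies were pooled and amplicon-sequenced on an Illumina HiSeq 2500. Fitness from DiMSum is the error-weighted combination of wild-type-normalised replicate fold changes, kanamycin over none.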

Sequence	self-splicing fitness (ln) (30 °C)	self-splicing fitness (ln) (37 °C)
CCUUAGCAAUAUUACGCUAA	-3.35 ± 0.4	-1.97 ± 0.2
CCUUAGCAAUAUUACGCUCC	–	-1.44 ± 0.5
CCUUAGCAAUAUUACGCUCU	-3.8 ± 0.43	-0.731 ± 0.38
CCUUAGCAAUAUUACGCUGU	-3.42 ± 0.2	-2.49 ± 0.19
CCUUAGCAAUAUUACGGACC	-2.33 ± 0.3	–
CCUUAGCAAUAUUACGGAGA	-3.46 ± 0.37	-2.41 ± 0.42
CCUUAGCAAUAUUACGGGAA	-3.02 ± 0.18	-2.76 ± 0.19
CCUUAGCAAUAUUACGGGAU	-3.68 ± 0.29	-2.68 ± 0.27
CCUUAGCAAUAUUACGGGGA	-3.75 ± 0.29	-2.63 ± 0.23
CCUUAGCAAUAUUACGGGUC	-4.43 ± 0.3	-2.86 ± 0.38
CCUUAGCAAUAUUACGGGUG	-1.5 ± 0.065	-0.759 ± 0.081
CCUUAGCAAUAUUACGGUGU	-3.82 ± 0.24	-2.81 ± 0.23
CCUUAGCAAUAUUACGUACG	-2.45 ± 0.22	-2.2 ± 0.29
CCUUAGCAAUAUUACGUAGA	-4.13 ± 0.34	-0.769 ± 0.17
CCUUAGCAAUAUUACGUCAA	-2.87 ± 0.33	–
CCUUAGCAAUAUUACGUCCA	–	-1.92 ± 0.33
CCUUAGCAAUAUUACGUGUC	-2.66 ± 0.26	-0.776 ± 0.21
CCUUAGCAAUAUUACGUUCA	-3.3 ± 0.47	-2.9 ± 0.47
CCUUAGCAAUAUUACGUUCC	-3.14 ± 0.31	-2.51 ± 0.34
CCUUAGCAAUAUUACGUUGC	-3.68 ± 0.38	-3.31 ± 0.3
CCUUAGCAAUAUUACGUUUU	-4.8 ± 0.31	-2.85 ± 0.28
CGAAAGCAAUAUUACGACAU	-2.721 ± 0.017	-1.41 ± 0.034
CGAAAGCAAUAUUACGACCA	-1.24 ± 0.14	-1.24 ± 0.15
CGAAAGCAAUAUUACGACGA	-0.59 ± 0.094	0.312 ± 0.09

Sequence	self-splicing fitness (ln) (30 °C)	self-splicing fitness (ln) (37 °C)
CGAAAGCAAUAUUACGAGAU	-3.54 ± 0.34	-1.55 ± 0.17
CGAAAGCAAUAUUACGAGCG	-0.778 ± 0.098	-0.277 ± 0.11
CGAAAGCAAUAUUACGCCGG	-0.615 ± 0.14	0.34 ± 0.17
CGAAAGCAAUAUUACGCCUU	-2.73 ± 0.44	-1.11 ± 0.28
CGAAAGCAAUAUUACGCUGG	-1.66 ± 0.11	-0.903 ± 0.14
CGAAAGCAAUAUUACGGCGU	-0.379 ± 0.074	0.313 ± 0.11
CGAAAGCAAUAUUACGGCUA	-1.72 ± 0.13	-1.6 ± 0.14
CGAAAGCAAUAUUACGGGUG	0.0165 ± 0.043	0.189 ± 0.063
CGAAAGCAAUAUUACGGUCC	-0.283 ± 0.087	-0.129 ± 0.13
CGAAAGCAAUAUUACGGUGG	-0.576 ± 0.046	0.0831 ± 0.066
CGAAAGCAAUAUUACGUAAA	-2.45 ± 0.23	-1.92 ± 0.31
CGAAAGCAAUAUUACGUAUC	-3.76 ± 0.2	-3.21 ± 0.23
CGAAAGCAAUAUUACGUCGG	-0.496 ± 0.06	-0.0301 ± 0.071
CGAAAGCAAUAUUACGUCUA	-0.692 ± 0.25	-0.962 ± 0.17
CGAAAGCAAUAUUACGUGGG	-2.3 ± 0.098	-2.46 ± 0.14
CGAAAGCAAUAUUACGUGUC	-3.94 ± 0.34	-2.71 ± 0.22
CGACAGCAAUAUUACGAAAA	-3.75 ± 0.26	-1.93 ± 0.2
CGACAGCAAUAUUACGAACA	-2.16 ± 0.14	-0.404 ± 0.11
CGACAGCAAUAUUACGACGA	-1.01 ± 0.12	0.0299 ± 0.14
CGACAGCAAUAUUACGACGC	-2.21 ± 0.11	-0.587 ± 0.12
CGACAGCAAUAUUACGAGAU	-3.16 ± 0.23	-2.01 ± 0.21
CGACAGCAAUAUUACGAGGU	-3.14 ± 0.33	-1.73 ± 0.2
CGACAGCAAUAUUACGAUAG	-0.383 ± 0.06	-0.728 ± 0.07
CGACAGCAAUAUUACGAUGA	-0.751 ± 0.075	-0.41 ± 0.075

Source: the supplement of paper PMC7877785
